Assay results as given in PMC7304575, “Cryo-EM structure of the nonameric CsgG-CsgF complex and its implications for controlling curli biogenesis in Enterobacteriaceae” (PLoS Biology, 2020).

B1: CsgG with a C-terminal 6×His tag (natural protein, E. coli, UniProt P0AEA2 16-277, looked up)
chain: CLTAPPKEAARPTLMPRAQSYKDLTHLPAPTGKIFVSVYNIQDETGQFKPYPASNFSTAVPQSATAMLVTALKDSRWFIPLERQGLQNLLNERKIIRAAQENGTVAINNRIPLQSLTAANIMVEGSIIGYESNVKSGGVGARYFGIGADTQYQLDQIAVNLRVVNVSTGEILSSVNTSKTILSYEVQAGVFRFIDYQRLLEGEVGYTSNEPVMLCLMSAIETGVIFLINDGIDRGLWDLQNKAERQNDILVKYRHMSVPPES
notes: CsgG, E. coli K12 MG1655; the full-length csgG gene was expressed and the protein purified from outer membranes; the structure holds residues 16-272 with the C-terminal 5 residues invisible (so 16-277); numbers count on the full-length precursor; also called CsgGHis; C-terminally His-tagged CsgG; not shown: His6, C-terminal, kept

Assays:
[1] = target: the molecule itself; experiment: cryo-EM structure; full-length CsgG-CsgF complex, co-expressed and co-purified in DDM; map at 3.6 Å
[2] = target: B1; experiment: pull-down; GST fusions or GST (approximately 0.1 mg) immobilised on glutathione sepharose, approximately 0.2 mg CsgG added, 1 hour at 4°C; washed with 20 mM Tris-HCl pH 7.5, 150 mM NaCl, 5% glycerol, 0.1% DDM; SDS-PAGE and anti-His western blot; details: both partners purified
[3] = target: the molecule itself; experiment: cryo-EM structure; chymotrypsin-digested CsgG-CsgF_(20–59) complex in 20 mM Tris-HCl pH 8.0, 150 mM NaCl, 0.06% DDM; filaments on the grid; maps at 2.9 Å (head-to-head, D9) and 3.2 Å (head-to-tail, C9)

B1
stoichiometry N [1]: 9

B2: CsgF_(20–53)-GST (domain or fragment, E. coli, UniProt P0AE98 20-53, looked up)
chain: GTMTFQFRNPNFGGNPNNGAFLLNSAQAQNSYKD
notes: CsgF, E. coli, residues 20-53 (N-terminus of the mature CsgF); numbers count on the full-length precursor; also called CsgF_(20–53) fused to GST C-terminally; source: E. coli BL21 (DE3), purified; not shown: GST, C-terminal, kept
binding result [2]: binds

B3: chymotrypsin-digested CsgG (residues 47–252) of the CsgG-CsgF_(20–59) complex (domain or fragment, E. coli, UniProt P0AEA2 47-252, looked up)
chain: GKIFVSVYNIQDETGQFKPYPASNFSTAVPQSATAMLVTALKDSRWFIPLERQGLQNLLNERKIIRAAQENGTVAINNRIPLQSLTAANIMVEGSIIGYESNVKSGGVGARYFGIGADTQYQLDQIAVNLRVVNVSTGEILSSVNTSKTILSYEVQAGVFRFIDYQRLLEGEVGYTSNEPVMLCLMSAIETGVIFLINDGIDRGLW
notes: numbers count on the full-length precursor; The His tag goes with the C-terminal residues that chymotrypsin removed; source: E. coli BL21 (DE3), co-expressed with CsgF, purified (Ni-NTA), chymotrypsin proteolysis, size exclusion chromatography; not shown: His6, C-terminal, cleaved
stoichiometry N [3]: 9
